From article doi:10.1101/2020.05.29.123786
Several values for one entry are separate records, joined by “and”; a condition that tells them apart may be missing. Equal entries are not always repeated.

T1: PilQ from Pseudomonas aeruginosa (type IVa pilus secretin) (Pseudomonas aeruginosa), P34750
T1 chain: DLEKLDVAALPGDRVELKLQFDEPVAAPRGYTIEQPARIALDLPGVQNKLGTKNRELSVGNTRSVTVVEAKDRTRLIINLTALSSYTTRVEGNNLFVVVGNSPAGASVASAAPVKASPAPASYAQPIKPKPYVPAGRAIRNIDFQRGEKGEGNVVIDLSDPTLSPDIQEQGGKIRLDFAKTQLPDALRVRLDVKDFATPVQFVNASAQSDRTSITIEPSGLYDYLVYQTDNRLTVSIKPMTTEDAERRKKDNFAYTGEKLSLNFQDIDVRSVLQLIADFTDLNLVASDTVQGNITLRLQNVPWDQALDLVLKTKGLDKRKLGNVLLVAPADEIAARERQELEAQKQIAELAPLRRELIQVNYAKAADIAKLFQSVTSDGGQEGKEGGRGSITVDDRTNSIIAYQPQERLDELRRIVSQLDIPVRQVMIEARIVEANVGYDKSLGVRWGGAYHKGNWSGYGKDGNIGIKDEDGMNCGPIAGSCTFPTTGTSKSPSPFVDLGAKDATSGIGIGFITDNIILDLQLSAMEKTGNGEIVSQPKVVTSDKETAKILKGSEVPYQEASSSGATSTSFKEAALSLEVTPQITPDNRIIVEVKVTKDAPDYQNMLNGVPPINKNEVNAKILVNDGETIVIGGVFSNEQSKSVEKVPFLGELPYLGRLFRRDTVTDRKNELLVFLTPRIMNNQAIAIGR

B1: PilQ from Pseudomonas aeruginosa (type IVa pilus secretin), P34750 25-714 (natural protein)
chain: T1 chain

How the values were obtained:
Test in all cases: cryo-EM structure
[1] = molecular target: PilQ from Pseudomonas aeruginosa (type IVa pilus secretin) (Pseudomonas aeruginosa) (UniProt P34750)
[2] = molecular target: TsaP from Pseudomonas aeruginosa (Pseudomonas aeruginosa)
[3] = molecular target: T1, PilQ from Pseudomonas aeruginosa (type …); details: remark: other sources report otherwise

| Molecule | stoichiometry N (TsaP per PilQ) [1] | stoichiometry N [2] | stoichiometry N [3] |
| --- | --- | --- | --- |
| TsaP from Pseudomonas aeruginosa (natural protein) | 0.5 | 7 | – |
| B1 | – | – | 14 and 15 |
